Test: Isoelectric point of SELP repeat sequence protein polymers
Assay type: physicochemical

## SELP47K: silk-elastin repeat sequence protein block copolymer, head-[(GAGAGS)2(GVGVP)3GKGVP(GVGP)4(GAGAGS)2]13-tail, 886 amino acids
  pI of the protein: 10.5

From patent US7456147B2, “Controlled release of active agents utilizing repeat sequence protein polymers” (Dow Corning, Corporation, priority 2003, dated 2008)
